In US20230212305A1, “ANTI-ABCG2 ANTIBODIES AND USES THEREOF” (Kenjockety Biotechnology, Inc., priority 2020, published 2023):

T1: ABCG2 (Homo sapiens, UniProt Q9UNQ0)
T1 construct: expressed in transfected cells
T1 sequence (Q9UNQ0 1-655): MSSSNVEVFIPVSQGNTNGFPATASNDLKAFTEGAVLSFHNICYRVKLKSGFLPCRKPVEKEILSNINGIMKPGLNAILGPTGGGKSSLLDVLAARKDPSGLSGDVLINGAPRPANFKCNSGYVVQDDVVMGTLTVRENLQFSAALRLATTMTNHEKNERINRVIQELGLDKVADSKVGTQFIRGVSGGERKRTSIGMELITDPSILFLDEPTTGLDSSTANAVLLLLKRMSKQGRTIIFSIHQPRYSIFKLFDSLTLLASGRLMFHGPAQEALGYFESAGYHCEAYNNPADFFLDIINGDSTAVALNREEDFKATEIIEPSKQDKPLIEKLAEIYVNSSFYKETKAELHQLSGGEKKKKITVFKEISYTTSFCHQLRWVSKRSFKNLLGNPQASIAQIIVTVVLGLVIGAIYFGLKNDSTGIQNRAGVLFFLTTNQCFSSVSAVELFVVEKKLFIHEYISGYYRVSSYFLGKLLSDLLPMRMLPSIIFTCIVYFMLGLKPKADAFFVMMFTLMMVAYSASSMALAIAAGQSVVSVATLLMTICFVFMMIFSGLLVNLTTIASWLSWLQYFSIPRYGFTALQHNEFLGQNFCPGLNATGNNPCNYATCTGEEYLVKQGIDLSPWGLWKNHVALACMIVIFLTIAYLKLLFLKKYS


Columns and labels:
[1] = target: T1, ABCG2; assay: Flow cytometry binding to 293T cells overexpressing human ABCG2 (293T_ABCG2_OX); design: key to Binding by FACS: binding=“+”; non-significant binding=“−”; conditions: for Binding by FACS: 293T_ABCG2_OX cells; for binding to 293 cells overexpressing human ABCG2 (hG2): FACS, FIG. 1
Procedure, shortened: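 Antibodies serially diluted (from 100 ug/mL or about 666 nM) and incubated 30 min on ice with 293T cells stably expressing human or cynomolgus ABCG2, in PBS/2% FBS/0.02% azide. Bound antibody detected by PE anti-human IgG F(ab′)2, 20 min on ice, flow cytometry; EC50 = concentration giving half-maximal signal.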

[2] = test system: cynomolgus ABCG2; assay: Flow cytometry binding to 293T cells overexpressing cynomolgus ABCG2; design: key to Cynomolgus ABCG2 binding: binding=“+”; non-significant binding=“−”; conditions: for binding to 293 cells overexpressing cynomolgus ABCG2 (cG2): FACS, FIG. 1
Sequence of cynomolgus ABCG2 (as listed by the source): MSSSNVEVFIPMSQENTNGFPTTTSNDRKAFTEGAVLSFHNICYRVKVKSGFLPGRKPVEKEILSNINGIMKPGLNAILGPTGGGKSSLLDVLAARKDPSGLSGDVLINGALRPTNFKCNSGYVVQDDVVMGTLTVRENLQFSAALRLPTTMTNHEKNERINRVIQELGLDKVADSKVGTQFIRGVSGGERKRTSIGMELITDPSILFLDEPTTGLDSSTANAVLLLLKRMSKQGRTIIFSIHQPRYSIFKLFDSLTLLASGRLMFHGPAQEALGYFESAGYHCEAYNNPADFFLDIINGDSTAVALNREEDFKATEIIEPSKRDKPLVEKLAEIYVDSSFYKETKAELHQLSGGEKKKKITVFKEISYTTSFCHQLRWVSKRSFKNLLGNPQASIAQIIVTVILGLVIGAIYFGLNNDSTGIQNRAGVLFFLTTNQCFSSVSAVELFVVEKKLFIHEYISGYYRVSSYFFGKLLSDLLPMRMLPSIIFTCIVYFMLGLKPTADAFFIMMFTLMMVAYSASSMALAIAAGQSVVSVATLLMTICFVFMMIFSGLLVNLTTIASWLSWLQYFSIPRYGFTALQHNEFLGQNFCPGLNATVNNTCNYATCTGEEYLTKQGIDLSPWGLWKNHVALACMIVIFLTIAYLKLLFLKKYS
Procedure, shortened: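 293T cells stably overexpressing cynomolgus ABCG2 were incubated on ice for 30 min with antibody at 5 ug/mL or serial dilutions from 100 ug/mL. Bound antibody detected with PE-labelled anti-human IgG F(ab′)2 by flow cytometry; EC50 taken as concentration giving half-maximal response.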

[3] = target: T1, ABCG2; type: cell-based
Procedure, shortened: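 293T cells overexpressing ABCG2 (2×10e6 cells/ml, phenol red-free DMEM) treated with antibodies or inhibitors at 1 μM final, then loaded with 2.5 μM mitoxantrone 1 h at 37° C. After washing, mitoxantrone retention read as fluorescence (ex 635, em 647 nm) to measure efflux blockade.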

[4] = test system: 293T_ABCG2_OX cells; type: cell-based, human; conditions: cell killing by topotecan on 293T_ABCG2_OX cells; viability relative to IgG control
Protocol: Cytotoxicity Assays. The effect of antibodies on topotecan cytotoxicity was evaluated on 293T_ABCG2_OX cells, 293T cells stably transfected to express ABCG2. Cells were plated in 0.05 mL of Assay Media (DMEM+10% FBS) at 5000 cells/well in white, flat bottom 96-well tissue culture plates. Topotecan was prepared at 2× final assay concentration by serial dilution from 200 uM in assay media containing test antibodies or control antibodies at 100 ug/mL (2× final concentration), or Fumitremorgin C, a small molecule ABCG2 inhibitor at 20 uM (2× final concentration). An equivalent volume (0.05 mL) of the topotecan/antibody mixture was added to the 293T_ABCG2_OX cells in 96-well plates. The plates were then incubated at 37° C., in 5% CO2. After 72-96 hr plates were equilibrated to room temperature and cell viability assessed using Promega® CellTiter-Glo® Luminescent Cell Viability Assay according to the manufacturer's recommended protocol. Luminescence was measured on a Molecular Devices® FlexStation® 3 Multi-Mode Microplate Reader and data analyzed using GraphPad Prism 8.0 software. Half maximal inhibitory concentration (1050) is the concentration of drug (topotecan or other chemotherapy cytotoxic agent) where the response (cell growth) is reduced by 50%.

[5] = test system: HEK 293 naïve cells; assay: FACS binding to HEK 293 naïve cells; design: species or system human; conditions: FIG. 1

Molecule	Binding by FACS [1]	binding to 293 cells overexpressing human ABCG2 (hG2) [1]	Cynomolgus ABCG2 binding [2]	binding to 293 cells overexpressing cynomolgus ABCG2 (cG2) [2]	Block Efflux [3]	Killing [4]	binding to 293 naïve cells [5]
G2.302 mouse: anti-ABCG2 antibody raised in mouse, listed in Table 2 (antibody, V domains shown) VH: QIQLQQSGPELVRPGASVKISCKASGYTFTDYYINWVKQRPGQGLEWIGWIYPGNVNVKYNEKFKGKATLTVDTSSSTGYMQLRSLTSEDSAVYFCARSIGLRYFDNWGQGTTLTVSS VL: EKVLTQSPAIMSASLGEKVTMSCRASSSVHYMYWHQQKSDASPRLWIYYTSNLAPGVPARFSGSGSGNFYSLTISSVEDEDGATYYCQQFTTSTWTFGGGTKLEIK	+	binds	+	binds	−	− (≥75% of IgG control)	does not significantly bind
G2.65 mouse: anti-ABCG2 antibody raised in mouse, listed in Table 2 (antibody, V domains shown) VH: QGQMHQSGAELVKPGASVKLSCKTSGFTFNSGYISWLKQKPRQSLEWIAWIYAGTGISNFNQKFTGKAQLTVDTSSSTAYMQLSSLTSADSAIYFCASGARKTLDFWGQGTSVTVSS VL: DIQMTQSSSYLSVSVGGRVTITCKASDQINYWLAWYQQKPGNAPRLLISGATSLETGVPSRFSGSGSGKDYTLSITSFQTEDVATYYCQQYWTTPYTFGGGTKVEIK	+	binds	−	does not significantly bind	−	− (≥75% of IgG control)	does not significantly bind
